The target in one data set is T1, SSF (full-length) (Escherichia coli F plasmid, UniProt P18310 1-179).
T1 sequence: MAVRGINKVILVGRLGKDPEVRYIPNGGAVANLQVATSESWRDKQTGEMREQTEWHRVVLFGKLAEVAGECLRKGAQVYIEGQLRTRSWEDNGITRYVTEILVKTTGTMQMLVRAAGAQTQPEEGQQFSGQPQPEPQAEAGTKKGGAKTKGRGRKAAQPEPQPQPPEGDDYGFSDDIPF
In words: MST.

The next data set concerns the target SSB (full-length) (Escherichia coli, UniProt P0AGE0 1-178). Briefly: MST.

SSB (full-length), sequence (P0AGE0 whole entry): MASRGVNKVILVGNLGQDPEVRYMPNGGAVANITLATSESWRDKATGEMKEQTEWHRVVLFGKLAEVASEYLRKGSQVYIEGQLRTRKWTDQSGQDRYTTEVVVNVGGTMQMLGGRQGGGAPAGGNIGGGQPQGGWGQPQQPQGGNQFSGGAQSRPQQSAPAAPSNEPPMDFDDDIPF

Usually Kd stands for a measure of binding affinity in units of concentration. Higher therefore signals lower affinity. In turn, GGCAAATTACTCCTGTAATTTGCC (structured_DNA) [hairpin dsDNA] yielded a Kd with SSF (full-length) of 45.3 µM. Further, the binding result with SSB (full-length) is “no binding”.

(Values after article doi:10.1101/2024.05.23.595439.)
